In patent publication US20230365641:
Several values for one entry are separate records, joined by “and”; a condition that tells them apart may be missing. Identical values can stand only once.

recombinant human MMP-9, sequence (chain, as listed by the source): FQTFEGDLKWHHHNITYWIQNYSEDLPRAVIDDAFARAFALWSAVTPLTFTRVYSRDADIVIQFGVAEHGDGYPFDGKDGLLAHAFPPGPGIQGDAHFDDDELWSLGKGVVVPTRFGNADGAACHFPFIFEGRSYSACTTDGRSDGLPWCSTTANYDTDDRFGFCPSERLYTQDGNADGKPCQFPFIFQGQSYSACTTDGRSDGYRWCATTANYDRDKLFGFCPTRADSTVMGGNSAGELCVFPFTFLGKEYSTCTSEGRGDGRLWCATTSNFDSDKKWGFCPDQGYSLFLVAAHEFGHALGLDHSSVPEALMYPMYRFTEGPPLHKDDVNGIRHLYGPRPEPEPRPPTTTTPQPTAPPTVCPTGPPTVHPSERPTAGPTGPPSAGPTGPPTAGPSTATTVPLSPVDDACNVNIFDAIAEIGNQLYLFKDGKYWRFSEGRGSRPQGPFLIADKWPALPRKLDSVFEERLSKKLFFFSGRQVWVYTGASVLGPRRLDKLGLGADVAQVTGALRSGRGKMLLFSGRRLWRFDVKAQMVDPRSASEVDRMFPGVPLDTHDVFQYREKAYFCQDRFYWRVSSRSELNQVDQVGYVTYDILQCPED
MMP-10 protease, sequence (chain, as listed by the source): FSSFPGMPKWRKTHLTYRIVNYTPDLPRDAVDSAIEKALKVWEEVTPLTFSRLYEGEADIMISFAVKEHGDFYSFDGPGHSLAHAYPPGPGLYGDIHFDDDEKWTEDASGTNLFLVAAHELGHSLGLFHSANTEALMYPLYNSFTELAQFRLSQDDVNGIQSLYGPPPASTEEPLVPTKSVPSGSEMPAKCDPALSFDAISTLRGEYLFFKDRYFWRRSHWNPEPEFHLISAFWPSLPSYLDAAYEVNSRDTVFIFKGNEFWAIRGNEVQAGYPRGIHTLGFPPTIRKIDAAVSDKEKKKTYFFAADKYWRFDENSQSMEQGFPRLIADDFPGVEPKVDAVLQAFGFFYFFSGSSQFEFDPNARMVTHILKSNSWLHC
TC24, sequence (chain, as listed by the source, chain 1 of 3, other chains not shown): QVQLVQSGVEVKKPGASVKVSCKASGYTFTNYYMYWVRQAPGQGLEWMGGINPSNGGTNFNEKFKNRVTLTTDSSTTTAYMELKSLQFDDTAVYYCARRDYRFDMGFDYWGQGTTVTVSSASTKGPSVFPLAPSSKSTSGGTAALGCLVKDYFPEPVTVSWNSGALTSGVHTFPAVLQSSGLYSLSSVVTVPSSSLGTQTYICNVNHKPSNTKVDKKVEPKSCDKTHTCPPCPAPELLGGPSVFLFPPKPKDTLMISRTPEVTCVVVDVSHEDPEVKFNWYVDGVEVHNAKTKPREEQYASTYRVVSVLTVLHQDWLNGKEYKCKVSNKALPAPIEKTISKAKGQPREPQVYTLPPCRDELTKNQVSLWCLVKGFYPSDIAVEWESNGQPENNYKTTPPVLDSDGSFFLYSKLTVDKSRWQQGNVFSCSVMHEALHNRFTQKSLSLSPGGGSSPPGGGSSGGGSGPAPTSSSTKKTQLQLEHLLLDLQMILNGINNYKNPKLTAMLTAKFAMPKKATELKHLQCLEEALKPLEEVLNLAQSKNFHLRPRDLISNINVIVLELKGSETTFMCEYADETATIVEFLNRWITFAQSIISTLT
TC24, sequence (chain, as listed by the source, chain 2 of 3, other chains not shown): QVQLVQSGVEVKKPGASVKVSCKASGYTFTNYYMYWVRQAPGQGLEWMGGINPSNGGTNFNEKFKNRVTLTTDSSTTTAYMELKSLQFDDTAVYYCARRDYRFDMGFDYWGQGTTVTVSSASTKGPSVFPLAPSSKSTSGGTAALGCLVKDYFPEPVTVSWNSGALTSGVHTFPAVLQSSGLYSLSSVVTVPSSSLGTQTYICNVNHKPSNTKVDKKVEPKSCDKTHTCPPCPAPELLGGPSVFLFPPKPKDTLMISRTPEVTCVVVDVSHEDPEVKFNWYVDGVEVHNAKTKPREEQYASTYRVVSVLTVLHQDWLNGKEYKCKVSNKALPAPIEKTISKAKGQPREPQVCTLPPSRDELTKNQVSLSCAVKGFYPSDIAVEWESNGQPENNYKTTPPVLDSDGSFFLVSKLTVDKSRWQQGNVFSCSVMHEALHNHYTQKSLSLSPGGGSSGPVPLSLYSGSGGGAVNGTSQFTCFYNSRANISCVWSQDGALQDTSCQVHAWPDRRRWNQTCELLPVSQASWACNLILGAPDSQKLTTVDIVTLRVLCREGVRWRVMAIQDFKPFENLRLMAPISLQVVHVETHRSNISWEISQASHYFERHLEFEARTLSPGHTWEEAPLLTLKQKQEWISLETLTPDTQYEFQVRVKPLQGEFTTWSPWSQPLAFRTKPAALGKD
TC46, sequence (chain, as listed by the source, chain 1 of 3, other chains not shown): as the sequence (chain, as listed by the source, chain 1 of 3, other chains not shown) above
TC46, sequence (chain, as listed by the source, chain 2 of 3, other chains not shown): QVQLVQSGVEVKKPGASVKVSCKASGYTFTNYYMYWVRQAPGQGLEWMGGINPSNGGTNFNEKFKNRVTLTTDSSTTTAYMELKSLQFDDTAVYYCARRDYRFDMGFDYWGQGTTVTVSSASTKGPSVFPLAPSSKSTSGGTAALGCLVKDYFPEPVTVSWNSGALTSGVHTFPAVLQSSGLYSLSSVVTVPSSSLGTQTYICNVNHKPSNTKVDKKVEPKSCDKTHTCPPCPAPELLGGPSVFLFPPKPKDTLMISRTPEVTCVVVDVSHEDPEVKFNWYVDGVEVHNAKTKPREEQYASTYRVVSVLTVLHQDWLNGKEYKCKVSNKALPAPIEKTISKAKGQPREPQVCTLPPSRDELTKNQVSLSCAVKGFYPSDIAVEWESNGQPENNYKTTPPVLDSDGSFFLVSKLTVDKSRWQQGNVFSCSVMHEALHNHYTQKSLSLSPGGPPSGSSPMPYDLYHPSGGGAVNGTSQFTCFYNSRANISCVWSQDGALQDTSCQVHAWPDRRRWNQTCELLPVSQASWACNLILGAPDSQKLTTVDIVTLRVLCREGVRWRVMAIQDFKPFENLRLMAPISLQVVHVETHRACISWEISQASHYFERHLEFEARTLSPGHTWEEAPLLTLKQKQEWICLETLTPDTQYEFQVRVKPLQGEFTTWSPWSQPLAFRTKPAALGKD
TC47, sequence (chain, as listed by the source, chain 1 of 3, other chains not shown): as the sequence (chain, as listed by the source, chain 1 of 3, other chains not shown) above
TC47, sequence (chain, as listed by the source, chain 2 of 3, other chains not shown): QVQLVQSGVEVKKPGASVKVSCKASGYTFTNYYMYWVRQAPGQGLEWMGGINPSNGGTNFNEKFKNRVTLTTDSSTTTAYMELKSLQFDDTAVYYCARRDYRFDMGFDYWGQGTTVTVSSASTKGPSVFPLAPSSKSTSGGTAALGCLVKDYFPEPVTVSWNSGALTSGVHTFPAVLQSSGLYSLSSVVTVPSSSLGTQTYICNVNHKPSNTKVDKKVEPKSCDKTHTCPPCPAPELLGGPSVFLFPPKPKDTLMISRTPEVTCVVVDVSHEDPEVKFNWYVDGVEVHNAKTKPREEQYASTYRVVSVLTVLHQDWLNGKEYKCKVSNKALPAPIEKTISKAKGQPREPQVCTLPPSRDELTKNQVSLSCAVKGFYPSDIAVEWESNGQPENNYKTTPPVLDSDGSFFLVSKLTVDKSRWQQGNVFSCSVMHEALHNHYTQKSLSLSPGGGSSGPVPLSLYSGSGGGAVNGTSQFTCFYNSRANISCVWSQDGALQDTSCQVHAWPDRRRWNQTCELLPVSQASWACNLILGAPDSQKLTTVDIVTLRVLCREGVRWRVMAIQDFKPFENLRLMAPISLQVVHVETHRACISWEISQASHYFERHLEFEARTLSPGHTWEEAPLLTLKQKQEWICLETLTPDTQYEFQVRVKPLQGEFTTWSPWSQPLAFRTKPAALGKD
TC3, sequence (chain, as listed by the source, chain 1 of 3, other chains not shown): as the sequence (chain, as listed by the source, chain 1 of 3, other chains not shown) above
TC3, sequence (chain, as listed by the source, chain 2 of 3, other chains not shown): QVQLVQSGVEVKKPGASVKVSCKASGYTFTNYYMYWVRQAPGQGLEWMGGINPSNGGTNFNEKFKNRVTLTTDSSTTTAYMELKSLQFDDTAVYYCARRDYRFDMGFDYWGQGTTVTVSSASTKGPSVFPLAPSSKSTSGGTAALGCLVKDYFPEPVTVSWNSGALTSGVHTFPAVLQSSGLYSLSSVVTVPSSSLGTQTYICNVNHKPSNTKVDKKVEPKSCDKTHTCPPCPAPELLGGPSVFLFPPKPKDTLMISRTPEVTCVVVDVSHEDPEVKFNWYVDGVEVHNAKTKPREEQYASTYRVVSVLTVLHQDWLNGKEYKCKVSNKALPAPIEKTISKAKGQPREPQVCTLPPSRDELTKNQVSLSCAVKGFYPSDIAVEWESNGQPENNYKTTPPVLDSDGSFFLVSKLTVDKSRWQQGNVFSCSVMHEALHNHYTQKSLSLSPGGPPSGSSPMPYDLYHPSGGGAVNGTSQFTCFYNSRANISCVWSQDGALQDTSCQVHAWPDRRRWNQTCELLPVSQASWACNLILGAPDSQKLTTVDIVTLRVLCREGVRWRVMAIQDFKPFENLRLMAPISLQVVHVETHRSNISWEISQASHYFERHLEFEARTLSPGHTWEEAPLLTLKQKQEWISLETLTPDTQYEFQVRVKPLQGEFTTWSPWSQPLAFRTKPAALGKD

Substance	Est. kcat/KM (TC24) [M⁻¹ s⁻¹]	Est. kcat/KM (TC3) [M⁻¹ s⁻¹]	Est. kcat/KM (TC46) [M⁻¹ s⁻¹]	Est. kcat/KM (TC47) [M⁻¹ s⁻¹]	Est. kcat/KM (TC53)	Est. kcat/KM (TC57)	Est. kcat/KM (TC68)	Est. kcat/KM (TC69)	Est. kcat/KM (TC70)	Est. kcat/KM (TC71)	Est. kcat/KM (TC73)	Est. kcat/KM (TC74)	Est. kcat/KM (TC75)	cleavage efficiency (TC21)	cleavage efficiency (TC24)	cleavage efficiency (TC26)	cleavage efficiency (TC27)
recombinant human MMP-9	42000	3500	3500	38000	19000 M⁻¹ s⁻¹ and 18000 M⁻¹ s⁻¹	13000 M⁻¹ s⁻¹ and 14000 M⁻¹ s⁻¹	16000 M⁻¹ s⁻¹ and 15000 M⁻¹ s⁻¹	35000 M⁻¹ s⁻¹ and 36000 M⁻¹ s⁻¹	390 M⁻¹ s⁻¹ and 370 M⁻¹ s⁻¹	28000 M⁻¹ s⁻¹ and 30000 M⁻¹ s⁻¹	30000 M⁻¹ s⁻¹ and 29000 M⁻¹ s⁻¹	850 M⁻¹ s⁻¹ and 860 M⁻¹ s⁻¹	25000 M⁻¹ s⁻¹ and 26000 M⁻¹ s⁻¹				
MMP-10 protease														cleavage efficiency of greater than 80%	cleavage efficiency of greater than 80%	cleavage efficiency of greater than 80%	cleavage efficiency of greater than 80%
